In patent publication US20070224189A1 (published 2007):

Columns and labels:
[1] = biological target: extracellular region of human V158 FcγRIIIa fused with glutathione S-Transferase (GST) (human, UniProt P08637 17-208); assay: AlphaScreen competition
[2] = biological target: human F158 FcγRIIIa as used in SPR (human, UniProt P08637 17-208); assay: SPR
[3] = biological target: His-tagged V158 FcγRIIIa (human, UniProt P08637 17-208); assay: SPR, receptor on chip
His-tagged V158 FcγRIIIa, sequence (P08637 17-208 F176V): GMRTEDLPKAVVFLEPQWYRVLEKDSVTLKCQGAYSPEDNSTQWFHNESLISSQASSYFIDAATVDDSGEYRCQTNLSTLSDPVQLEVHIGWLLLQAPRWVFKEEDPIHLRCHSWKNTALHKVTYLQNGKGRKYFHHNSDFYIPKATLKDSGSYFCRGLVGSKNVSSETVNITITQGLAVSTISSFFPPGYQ

extracellular region of human V158 FcγRIIIa fused with glutathione S-Transferase (GST), sequence (P08637 17-208 F176V): as above
human F158 FcγRIIIa as used in SPR, sequence (P08637 17-208): as the sequence (P08637 17-208 F176V) above, with V160F counted along it

Binder | FcγRIIIa Fold [1] [fold vs WT] | Kd [2] [nM] | Kd [3] [nM]
F241E/F243Y/V262T/V264R/I332E alemtuzumab (antibody) heavy: DKTHTCPPCPAPELLGGPSVELYPPKPKDTLMISRTPEVTCTVRDVSHEDPEVKFNWYVDGVEVHNAKTKPREEQYNSTYRVVSVLTVLHQDWLNGKEYKCKVSNKALPAPEEKTISKAKGQPREPQVYTLPPSRDELTKNQVSLTCLVKGFYPSDIAVEWESNGQPENNYKTTPPVLDSDGSFFLYSKLTVDKSRWQQGNVFSCSVMHEALHNHYTQKSLSLSPGK | 0.1 |  | 
F241L/F243L/V262I/V264I alemtuzumab (antibody) heavy: DKTHTCPPCPAPELLGGPSVLLLPPKPKDTLMISRTPEVTCIVIDVSHEDPEVKFNWYVDGVEVHNAKTKPREEQYNSTYRVVSVLTVLHQDWLNGKEYKCKVSNKALPAPIEKTISKAKGQPREPQVYTLPPSRDELTKNQVSLTCLVKGFYPSDIAVEWESNGQPENNYKTTPPVLDSDGSFFLYSKLTVDKSRWQQGNVFSCSVMHEALHNHYTQKSLSLSPGK | 0.09 |  | 
F241W/F243W/V262A/V264A alemtuzumab (antibody) heavy: DKTHTCPPCPAPELLGGPSVWLWPPKPKDTLMISRTPEVTCAVADVSHEDPEVKFNWYVDGVEVHNAKTKPREEQYNSTYRVVSVLTVLHQDWLNGKEYKCKVSNKALPAPIEKTISKAKGQPREPQVYTLPPSRDELTKNQVSLTCLVKGFYPSDIAVEWESNGQPENNYKTTPPVLDSDGSFFLYSKLTVDKSRWQQGNVFSCSVMHEALHNHYTQKSLSLSPGK | 0.04 |  | 
F241Y/F243Y/V262T/V264T alemtuzumab (antibody) heavy: DKTHTCPPCPAPELLGGPSVYLYPPKPKDTLMISRTPEVTCTVTDVSHEDPEVKFNWYVDGVEVHNAKTKPREEQYNSTYRVVSVLTVLHQDWLNGKEYKCKVSNKALPAPIEKTISKAKGQPREPQVYTLPPSRDELTKNQVSLTCLVKGFYPSDIAVEWESNGQPENNYKTTPPVLDSDGSFFLYSKLTVDKSRWQQGNVFSCSVMHEALHNHYTQKSLSLSPGK | 0.05 |  | 
F243L/V262I/V264W alemtuzumab (antibody) heavy: DKTHTCPPCPAPELLGGPSVFLLPPKPKDTLMISRTPEVTCIVWDVSHEDPEVKFNWYVDGVEVHNAKTKPREEQYNSTYRVVSVLTVLHQDWLNGKEYKCKVSNKALPAPIEKTISKAKGQPREPQVYTLPPSRDELTKNQVSLTCLVKGFYPSDIAVEWESNGQPENNYKTTPPVLDSDGSFFLYSKLTVDKSRWQQGNVFSCSVMHEALHNHYTQKSLSLSPGK | 0.02 |  | 
P230A/E233D/I332E trastuzumab (antibody) heavy: DKTHTCPPCAAPDLLGGPSVFLFPPKPKDTLMISRTPEVTCVVVDVSHEDPEVKFNWYVDGVEVHNAKTKPREEQYNSTYRVVSVLTVLHQDWLNGKEYKCKVSNKALPAPEEKTISKAKGQPREPQVYTLPPSRDELTKNQVSLTCLVKGFYPSDIAVEWESNGQPENNYKTTPPVLDSDGSFFLYSKLTVDKSRWQQGNVFSCSVMHEALHNHYTQKSLSLSPGK | 1.87 |  | 
S239D/A330Y/I332E/K326E trastuzumab (antibody) heavy: DKTHTCPPCPAPELLGGPDVFLFPPKPKDTLMISRTPEVTCVVVDVSHEDPEVKFNWYVDGVEVHNAKTKPREEQYNSTYRVVSVLTVLHQDWLNGKEYKCKVSNEALPYPEEKTISKAKGQPREPQVYTLPPSRDELTKNQVSLTCLVKGFYPSDIAVEWESNGQPENNYKTTPPVLDSDGSFFLYSKLTVDKSRWQQGNVFSCSVMHEALHNHYTQKSLSLSPGK | 64.1 |  | 
S239D/A330Y/I332E/L234I trastuzumab (antibody) heavy: DKTHTCPPCPAPEILGGPDVFLFPPKPKDTLMISRTPEVTCVVVDVSHEDPEVKFNWYVDGVEVHNAKTKPREEQYNSTYRVVSVLTVLHQDWLNGKEYKCKVSNKALPYPEEKTISKAKGQPREPQVYTLPPSRDELTKNQVSLTCLVKGFYPSDIAVEWESNGQPENNYKTTPPVLDSDGSFFLYSKLTVDKSRWQQGNVFSCSVMHEALHNHYTQKSLSLSPGK | 22.4 |  | 
S239D/A330Y/I332E/L235D trastuzumab (antibody) heavy: DKTHTCPPCPAPELDGGPDVFLFPPKPKDTLMISRTPEVTCVVVDVSHEDPEVKFNWYVDGVEVHNAKTKPREEQYNSTYRVVSVLTVLHQDWLNGKEYKCKVSNKALPYPEEKTISKAKGQPREPQVYTLPPSRDELTKNQVSLTCLVKGFYPSDIAVEWESNGQPENNYKTTPPVLDSDGSFFLYSKLTVDKSRWQQGNVFSCSVMHEALHNHYTQKSLSLSPGK | 7.04 |  | 
S239D/A330Y/I332E/V240I trastuzumab (antibody) heavy: DKTHTCPPCPAPELLGGPDIFLFPPKPKDTLMISRTPEVTCVVVDVSHEDPEVKFNWYVDGVEVHNAKTKPREEQYNSTYRVVSVLTVLHQDWLNGKEYKCKVSNKALPYPEEKTISKAKGQPREPQVYTLPPSRDELTKNQVSLTCLVKGFYPSDIAVEWESNGQPENNYKTTPPVLDSDGSFFLYSKLTVDKSRWQQGNVFSCSVMHEALHNHYTQKSLSLSPGK | 28 |  | 
S239D/A330Y/I332E/V264T trastuzumab (antibody) heavy: DKTHTCPPCPAPELLGGPDVFLFPPKPKDTLMISRTPEVTCVVTDVSHEDPEVKFNWYVDGVEVHNAKTKPREEQYNSTYRVVSVLTVLHQDWLNGKEYKCKVSNKALPYPEEKTISKAKGQPREPQVYTLPPSRDELTKNQVSLTCLVKGFYPSDIAVEWESNGQPENNYKTTPPVLDSDGSFFLYSKLTVDKSRWQQGNVFSCSVMHEALHNHYTQKSLSLSPGK | 17.7 |  | 
S239D/D265Y/N297D/I332E alemtuzumab (antibody) heavy: DKTHTCPPCPAPELLGGPDVFLFPPKPKDTLMISRTPEVTCVVVYVSHEDPEVKFNWYVDGVEVHNAKTKPREEQYDSTYRVVSVLTVLHQDWLNGKEYKCKVSNKALPAPEEKTISKAKGQPREPQVYTLPPSRDELTKNQVSLTCLVKGFYPSDIAVEWESNGQPENNYKTTPPVLDSDGSFFLYSKLTVDKSRWQQGNVFSCSVMHEALHNHYTQKSLSLSPGK | 0.02 |  | 
S239D/I332E/A330I trastuzumab (antibody) heavy: DKTHTCPPCPAPELLGGPDVFLFPPKPKDTLMISRTPEVTCVVVDVSHEDPEVKFNWYVDGVEVHNAKTKPREEQYNSTYRVVSVLTVLHQDWLNGKEYKCKVSNKALPIPEEKTISKAKGQPREPQVYTLPPSRDELTKNQVSLTCLVKGFYPSDIAVEWESNGQPENNYKTTPPVLDSDGSFFLYSKLTVDKSRWQQGNVFSCSVMHEALHNHYTQKSLSLSPGK | 59.1 |  | 
S298A/E333A/K334A alemtuzumab (antibody) heavy: not shown |  | 156 | 39
